Laboratory results: the DeepSol protein solubility set

Assay: soluble on expression in E. coli; label from the status in PepcDB or PDB records

Row | Sequence | soluble on expression in E. coli
1 | MGSDKIHHHHHHMAGTCGLTLGKYAPLHKGHQLVIETALAEMDEVLVMIYECPEVTAIPLTVRANWLRKIYPQILVIEAWDGPTEVGDTSEIKKMHEDYILKQLESKKITHFYCSEFYGEHVSQALGAVNRLVDCDRKTFPISGTQVRTDTYAMREYLHPDVYRDLIANIVFLGAPSTGKTTIASQLAKEYNTVWMPEYGREYWEKNQINRRLSLLQLVEIAKGHLEREEALLLQANQYLFTDTNALTTYQFSLYYHKTVAPELVQLAHQAMSRYDLVFLCDLDIPYDDTWDRSGEANRSIFQKQIESDLIVRKIPFFRLSGDLMTRISIVKKVLYYYQKYASLGELFFNKLIL | not soluble
2 | MKKILVTGSLGQIGSELVMKLRDVYGASNVIATDIRETDSEVVTSGPFETLDVTDGQKLHDIAKRNEVDTIIHLAALLSATAEKNPLFAWNLNMGGLVNALEAARELNCKFFTPSSIGAFGPSTPKDNTPQDTIQRPTTMYGVNKVAGELLCDYYHQKFGVDTRGVRFPGLISYVAPPGGGTTDYAVEIYYEAIKKGAYTSYIAEGTYMDMMYMPDALQAIISLMEADPSKLVHRNAFNITAMSFEPEQIAASIRKHIPTFTMDYAVDPARQTIADSWPNSIDATAAMKEWGFKAEYDLDKMTTDMLAKLKKKLTAELVMN | not soluble
3 | MSLNLDFELNLTQQQKLVMTQQMQMSIKLLQMSNMELNEYIRSEIEENPLLDGKEVIKNDEYQSEMSKVDYKEFIKYLDFDNYTHENYSYRSEEEEVSPFNFIGSKKSFTEYLLDQLREISIDSETRHICEYIIENLDRDGYLRDSLEDIGMAVHKELKSVQNALNVVQSLEPIGVGARNLAECLKLQIYVRNVNDTKLIEIIDKHLGNIAENKYGVIAKELNITPKEAQEYGDYIKKLEPKPSRGFFTGDEVKYVVPDAFIRKIDDDFYVIMNDSSIPKLSINNTYKNILNTENDKKDVDYVKEKLNSAMFLLKSIEQRKTTLYEVLNEILRYQKAYFVGKTNYLRPMTLKDISEKLGMHESTISRAIREKYVYIDTKGLVKIRDMFTTGIASAYSVSEDKKDMSTQKIKNEIRDLIEKENKKSPLSDQKLSEILKEKGMNISRRTVAKYREEIGIKSSAKRKRYEGHHHHHH | soluble
4 | MSLTTIPIWDVQQTPELNISAADYSLLTDLYQLTMAACYTGEGVEQRRASFELFVRRSPEGFGYLIAMGLAQALEYLEKLRFSPEQIAALQATGIFAHAGEGFWSLLAEGRFTGDVWAVPEGTAVFANEPLLRVEAPLWQAQLVETYLLNTLNYQTLVATRAARLRDIAGEQATLLEFGTRRAFSPQASLWAARAALAGGLDATSNVLAALQLGQQPSGTMAHALVMALSAMEGSEEQAFSAFHRYFPGAPLLIDTYDTIAAAQHLAEKVNTGKMELSGVRLDSGDLVSLSKQVRSLLPDVSIFASGDLDEWEIAKLQAAGAEIDGYGLGTKLVTGSPVNGVYKLVEIDDIPVMKKSSGKTTYPGRKQIFRSFGDGQVQADRLGLITDTPLITEKPLLELVVKEGQRLQPRETLSAIRQRTAASVASLPEQTRRLDNPVPVPIQISTALQDLTEVTLQRLNEGHHHHHH | not soluble
5 | NIVLTQSPASLAVSLGQRATISCRANESVYSYGDSFMHWYQQKPGQPPKLLIYLASNLASGVPARFSGSGSRTDFTLTIDPVETDDAATYYCQQNNEDPWTFGGGTKLEIKRGDAAPTVSIFPPSSEQLTSGGASVVCFLNNFYPKDANVAWKIDGSERQNGVLNSWTDQDSKDSTYSMSSTLTLTKDEYERHNSYTCEATHKTSTSPIVKSFNR | soluble
6 | MGSDKIHHHHHHLRALGYQGRDVEVVALNDAQYLVAACDSCGAIGEKELDAVKVPWRVTGRMTARVALLEVLAVGAVPQMLSIAIANEPLPAGEEIMKGVREELKAMNLLSLPAAVSTEKNMPTEQTGLGITVIGLCDQDKLRIGRARPGNSLFCLGLPKVGTEAADPEDPDILQGIHLIQLLNIPGVYDIIPVGSQGIRGEAEALAQAVGARFGEDSQCRLDINKSAGPSTCLIFTAAEDIELGDFGKLPIHKIGRLEEDGGGGLLTENED | not soluble
